For the assay, the target named is T1, hPD-L1-ECD.mFc, W315-hPro1.ECD.mFc (in house) (human, UniProt Q9NZQ7 19-238).
T1 construct: extracellular domain; also called Human PD-L1, mFc tag; not shown: C-terminal mouse Fc
In words: dual binding (bridging) ELISA: plate coated with hVEGF.his, titrated antibody, then hPD-L1-ECD.mFc at 1 ug/ml, HRP goat anti-mouse IgG. On the technique in general: In an ELISA, binding on a coated surface is turned into a signal by an enzyme label.

T1 sequence (Q9NZQ7 19-238): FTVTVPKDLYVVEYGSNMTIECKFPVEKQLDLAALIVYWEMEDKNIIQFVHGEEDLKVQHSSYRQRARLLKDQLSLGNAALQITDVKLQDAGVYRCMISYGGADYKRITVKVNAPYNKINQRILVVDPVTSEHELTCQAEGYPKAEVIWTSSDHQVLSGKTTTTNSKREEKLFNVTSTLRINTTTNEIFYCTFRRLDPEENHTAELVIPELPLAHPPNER

B1: Avastin (bevacizumab) (antibody, human IgG1, V domains shown)
VH: EVQLVESGGGLVQPGGSLRLSCAASGYTFTNYGMNWVRQAPGKGLEWVGWINTYTGEPTYAADFKRRFTFSLDTSKSTAYLQMNSLRAEDTAVYYCAKYPHYYGSSHWYFDVWGQGTLVTVSS
VL: DIQMTQSPSSLSASVGDRVTITCSASQDISNYLNWYQQKPGKAPKVLIYFTSSLHSGVPSRFSGSGSGTDFTLTISSLQPEDFATYYCQQYSTVPWTFGQGTKVEIK
notes: also called parental anti-VEGF antibody
Regarding B1, the binding result is “no binding (tested: 100 nM)”.

The record behind these values is patent publication US20250026833A1 (WUXI BIOLOGICS IRELAND, published 2025).
